Laboratory results: patent publication US20250236644A1, “De Novo Designed Stimulus-responsive Two-state Hinge Proteins” (University of Washington, priority 2024, published 2025)

Assays:
TAMRA-cs074B = assay: Fluorescence polarization (FP) titration and kinetics, hinge vs TAMRA-cs074B; type: binding; details: 1 nM peptide cs074B, varying hinge; FIG. 10
Experimental: (§1) All FP measurements were performed at 25° C. in 96-well plates (Corning 3686) using a Synergy Neo2™ plate reader and a 530/590 nm filter cube. The buffer for all FP measurements was 20 mM Tris-HCl, 100 mM NaCl, 0.05% v/v TWEEN20 at pH 8. Titrations were carried out in 96-well format, with 4 replicates per plate and 24 data points per titration (23 steps of two-fold serial dilution of hinges in the presence of TAMRA-labeled peptide at a constant concentration between 0.1 nM and 1 nM) with a final sample volume of 80 μl per well. Titration plates were incubated overnight at room temperature before measuring to ensure complete equilibration. The polarization signal S (as calculated by the Neo2™ software) was fitted to the equation
(§2) where fAB is the fraction of peptide that is bound, Atot is the absolute hinge concentration, Btot is the absolute peptide concentration, S0 is the baseline polarization of free peptide, and S1 is the change in polarization upon complex formation.
(§3) Fitting was performed using the scipy.optimize.curve_fit python function (53). Uncertainties for KD values are standard deviation errors calculated from the covariance matrix of the fits. In cases where the fitted KD was lower than the concentration of the labeled peptide Btot, we report the KD as KD<Btot.
(§4) For FP kinetics experiments a 2× peptide solution and 8 different 2× hinge solutions at different concentrations were prepared separately. 40 μl of each hinge solution were mixed with 40 μl peptide solution using a multichannel pipet and the measurement was started immediately after mixing. Polarization signals S at each concentration were fitted individually to the equation
(§5) where S0 is the amplitude, S1 is the polarization at equilibrium, kapp is the apparent rate constant, t is the time after start of the measurement, and t0 is the dead time between mixing and start of the measurement. For each hinge-peptide pair, the apparent rate constants for 8 different concentrations are fitted to the equation
(§6) where koff and kon are observed off- and on rates and Atot is the absolute hinge concentration.

TAMRA-cs221B = assay: FP titration and kinetics, hinge vs TAMRA-cs221B; type: binding; details: for binding in FP titration: 1 nM peptide cs221B, varying hinge, FIG. 10; for peptide binding: FP; for kon: Effector TAMRA-cs221B, method FP
Sequence of TAMRA-cs221B (as listed by the source): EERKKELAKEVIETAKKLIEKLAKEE
Experimental: as §1, §2, §3, §4, §5, §6

TAMRA-js007B = assay: FP titration and kinetics, hinge vs TAMRA-js007B; type: binding
Sequence of TAMRA-js007B (as listed by the source): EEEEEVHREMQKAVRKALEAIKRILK
Experimental: as §1, §2
as §3, with “KD<Btot. […]” for “KD<Btot.”

TAMRA-cs201B = assay: FP titration and kinetics, hinge vs TAMRA-cs201B; type: binding; details: for binding in FP titration: 1 nM peptide cs201B, varying hinge, FIG. 10
Sequence of TAMRA-cs201B (as listed by the source): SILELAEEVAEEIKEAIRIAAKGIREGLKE
Experimental: as §1, §2, §3, §4, §5, §6

[1] = system: original peptides fused to superfolder green fluorescent protein (sfGFP); assay: SEC binding experiments with original peptides fused to sfGFP; details: FIG. 17C
Experimental: Individual hinge and sfGFP-fused peptides or 3hb were diluted in 20 mM Tris pH 8, 100 mM NaCl and mixed at approximately 1:1 concentrations. 0.5-1 mL of the resulting samples were injected onto a Superdex™ 200 Increase 10/300 GL columns and the absorbance at 230 nm was used as a readout for binding. For sfGFP-fused peptides, 473 nm was also used as readout. Mixtures were at a total concentration of 2. μM or higher.

Sequence of TAMRA-cs074B (as listed by the source): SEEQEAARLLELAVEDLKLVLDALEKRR

B1: csw13: cs201-derived hinge redesigned to bind peptide cs221B, SEQ ID NO:17 (protein)
chain: MSGNEEVKKLVEEAKKYLKEAEEYIKKAKKTGNEELLEKALKLLEKALELVKKAIELDPNNKEAIEQAVEIARALNEVAELLIEEAKKTGNEELLEKALEALEAANEALKLAIENNENDKELLAEIAVELAEVGVLLAEVLIEEAKKTGDPELLKLALEVLEAAVEALELALKLDPNNEEAVELAEEAAKLLEEVAKELKEEAKKTGDPELEKLAKEAEELAKRAKELAERQRGSGSHHWGSTHHHHHH
For B1, the “binding in FP titration” value (TAMRA-cs074B) was “not binding”, the “binding in FP titration” value (TAMRA-cs221B) was “specifically binds” and the “binding in FP titration” value (TAMRA-js007B; 1 nM peptide js007B, varying hinge, FIG. 10) was “not binding”. For the same molecule, the “binding in FP titration” value (TAMRA-cs201B) was “not binding”.

B2: csw20: cs201-derived hinge redesigned to bind peptide cs074B, SEQ ID NO:18 (protein)
chain: MSGMEEVKELVEKAEELAKEAEELIKKAKKTGNPELLKEALRKLKEAVELAKEAVELDPEHEEAIELLARLAEKLLEVAKLLIELAKKTGNPELLKEALRALKEAREALRLAAEHAPEDAKLLARLAARLAELALLIAKILIELAKKTGNPELLLKALKVLTLAVEAVEAALEADPRLKEAVRVAKELAEVLKELAKLAKELAKKTGNEELKEAAKEAEEVAKRAEELAREAEGSGSHHWGSTHHHHHH
In the case of B2, the “binding in FP titration” value (TAMRA-cs074B) is reported as “most strongly”, the “binding in FP titration” value (TAMRA-cs221B) is reported as “weaker than the new target” and the “binding in FP titration” value (TAMRA-cs201B) is reported as “still binds”.

B3: cs230: designed hinge protein, SEQ ID NO:12 (protein)
chain: MSGTKEEKERIERIEKEVRSPDPENILEAVRKALELFRENPSEEAKELLKRAIEAALRSEDERAILEALRAALEAYRQGAGDREGLLEAIRVAIRRAAESEDERAILEAVRAARILLEAERTEEAKELLRVAIERAKKSPDPEAQREAKRAEEELRKEDGSGSHHWGSTHHHHHH
With B3 the “SEC binding experiment with sfGFP-fused original peptide” value [1] was “higher-order peaks”.

B4: cs221_lockedX: cs221 variant with disulfide that locks state X, SEQ ID NO:19 (protein)
chain: MSGEMKEEIRRLAEELRERTKDEEVRELAREAARLAEESDDEEVKEVVKKALEAALKSKDEEVIRLLLLAAVCAAAAARSGSPEEKLEIAKKALELAMKSKDEEVIRLALLAAVLACRSDDEEVLKKVKEALEKAMESKDVEEIRERLREAVEVARAGSGSHHWGSTHHHHHH
With B4 the peptide binding (TAMRA-cs221B; oxidizing conditions (disulfide formed)) was “only weak residual binding” and the peptide binding (TAMRA-cs221B; upon addition of reducing agent DTT) was “fully restored”.

B5: cs201: designed hinge protein, SEQ ID NO:7 (protein)
chain: MSGDEEVQEAVERAEELREEAEELIKKARKTGDPELLRKALEALKEAVRAVREAIKRNPDNEEAIKTALRLARELRKVAKELIERARKTGDAELLKKALEAARVAVEAVRLAAEYNKENAEKMAELLVELAELAREVADVLIELAEKTGDPELLKKALEVLEEAVEAVRLAIEYDPDHEEAVETAKRLAEELRKVAELLEERAKETGDPELQELAKRAKEVADRARELAKKSNGSGSHHWGSTHHHHHH
For B5, the kon (TAMRA-cs201B; Effector TAMRA-cs201B, method FP) was 6700 M⁻¹ s⁻¹.

B6: cs221: designed hinge protein, SEQ ID NO:10 (protein)
chain: MSGEMKEEIRRLAEELRERTKDEEVRELAREAARLAEESDDEEVKEVVKKALEAALKSKDEEVIRLLLLAAVLAAAAARSGSPEEKLEIAKKALELAMKSKDEEVIRLALLAAVLAARSDDEEVLKKVKEALEKAMESKDVEEIRERLREAVEVARAGSGSHHWGSTHHHHHH
For B6, the kon (TAMRA-cs221B) was 3400 M⁻¹ s⁻¹.

B7: cs221_A114T: hinge cs221 with point mutation A114T (protein)
chain: MSGEMKEEIRRLAEELRERTKDEEVRELAREAARLAEESDDEEVKEVVKKALEAALKSKDEEVIRLLLLAAVLAAAAARSGSPEEKLEIAKKALELAMKSKDEEVIRLALLAAVLATRSDDEEVLKKVKEALEKAMESKDVEEIRERLREAVEVARAGSGSHHWGSTHHHHHH
For B7, the kon (TAMRA-cs221B) was 27700 M⁻¹ s⁻¹.

B8: cs221_A73E: hinge cs221 with point mutation A73E (protein)
chain: MSGEMKEEIRRLAEELRERTKDEEVRELAREAARLAEESDDEEVKEVVKKALEAALKSKDEEVIRLLLLAAVLAAEAARSGSPEEKLEIAKKALELAMKSKDEEVIRLALLAAVLAARSDDEEVLKKVKEALEKAMESKDVEEIRERLREAVEVARAGSGSHHWGSTHHHHHH
B8 was tested, and the kon (TAMRA-cs221B) was 1900 M⁻¹ s⁻¹.

B9: cs221_L66T: hinge cs221 with point mutation L66T (protein)
chain: MSGEMKEEIRRLAEELRERTKDEEVRELAREAARLAEESDDEEVKEVVKKALEAALKSKDEEVIRLLLTAAVLAAAAARSGSPEEKLEIAKKALELAMKSKDEEVIRLALLAAVLAARSDDEEVLKKVKEALEKAMESKDVEEIRERLREAVEVARAGSGSHHWGSTHHHHHH
In the case of B9, the kon (TAMRA-cs221B) is reported as 2700 M⁻¹ s⁻¹.

B10: cs221_lockedY: cs221 variant with disulfide that locks state Y, SEQ ID NO:20 (protein)
chain: MSGEMKEEIRRLAEELRERTKDEEVRELAREAARLAEESDDEEVKEVVKKALEAALKSKDEEVIRLLLCAAVLAAAAARSGSPEEKLEIAKKALELAMKSKDEEVIRLACLAAVLAARSDDEEVLKKVKEALEKAMESKDVEEIRERLREAVEVARAGSGSHHWGSTHHHHHH
For B10, the kon (TAMRA-cs221B) was 790000 M⁻¹ s⁻¹.

B11: cs221_V111L: hinge cs221 with point mutation V111L (protein)
chain: MSGEMKEEIRRLAEELRERTKDEEVRELAREAARLAEESDDEEVKEVVKKALEAALKSKDEEVIRLLLLAAVLAAAAARSGSPEEKLEIAKKALELAMKSKDEEVIRLALLAALLAARSDDEEVLKKVKEALEKAMESKDVEEIRERLREAVEVARAGSGSHHWGSTHHHHHH
B11 was tested, and the kon (TAMRA-cs221B) was 24300 M⁻¹ s⁻¹.

B12: cs221_V111L_A111T: state Y-stabilizing double mutant of hinge cs221 (protein)
chain: MSGEMKEEIRRLAEELRERTKDEEVRELAREAARLAEESDDEEVKEVVKKALEAALKSKDEEVIRLLLLAAVLAAAAARSGSPEEKLEIAKKALELAMKSKDEEVIRLALLAALLATRSDDEEVLKKVKEALEKAMESKDVEEIRERLREAVEVARAGSGSHHWGSTHHHHHH
B12 was tested, and the kon (TAMRA-cs221B) was 76200 M⁻¹ s⁻¹.

B13: js007: designed hinge protein, SEQ ID NO:11 (protein)
chain: MSGSEEVNERVKQLAEKAKEATDKEEVIEIVKELAELAKQSTDPNLVAEVVRALTEVAKTSTDTELIQEIVKVLLELARRLTDPQLLLEVLKSIAELLKELAEKTGNETAKLAALVAQIAAEVVEMALRAEKTHPGSEIVKLAVELVQKVAEIVLIAAQLMLDKPNSDEVRKVLKEVEKVAREALKALREAKRHPDSQKARDEIKEASQKAEEVKERIERAQEGSGSHHWGSTHHHHHH
Work on B13 yielded a kon (TAMRA-js007B; Effector TAMRA-js007B, method FP) of 78000 M⁻¹ s⁻¹.
